Measurements reported in patent publication US6127119, “Nucleic acid ligands of tissue target” (NeXstar Pharmaceuticals, Inc.).
Changes are numbered by the printed parent chain.

B1: FCN18 (ssRNA)
RNA: GGGAGAUAAGAAUAAACGCUCAAAUGAACGACCGCGGGCAGUCGCGUUCAAAUGAGUGGUUUUUUCGACAGGAGGCUCACAACAGGC
modifications: 2'-F pyrimidines
B2: FCN6 (ssRNA)
RNA: GGGAGAUAAGAAUAAACGCUCAACAACGAUUAUCUUUUCGGCCGUGAAACCCAAACUGACGCCUUCGACAGGAGGCUCACAACAGGC
modifications: 2'-F pyrimidines
B3: FCN59 (ssRNA)
RNA: GGGAGAUAAGAAUAAACGCUCAAAUGAUGCUCCUGAAGUAAUCACCAGGACAUCCUCGGCAUUUCGACAGGAGGCUCACAACAGGC
modifications: 2'-F pyrimidines
B4: FC34 (ssRNA)
RNA: GGGAGAUAAGAAUAAACGCUCAAAAGGCCGAACAACGAAGUUUGAUUCAGGUACUCAGCGUUCUUCGACAGGAGGCUCACAACAGGC
modifications: 2'-F pyrimidines
B5: FC10 (ssRNA)
RNA: GGGAGAUAAGAAUAAACGCUCAACAGACUCAGAGCGCCGUGAGCUUCUGAAGCAAUCGCAGGUUUCGACAGGAGGCUCACAACAGGC
modifications: 2'-F pyrimidines
B6: FCN52 (ssRNA)
RNA: GGGAGAUAAGAAUAAACGCUCAAAGCCGAGCUAAUCCCGAAAGUGACCCGGAACGACGCGGCAUUCGACAGGAGGCUCACAACAGGC
modifications: 2'-F pyrimidines
B7: FCN13 (ssRNA)
RNA: GGGAGAUAAGAAUAAACGCUCAACGUGAUGACAGCUCGGACGGCUCAUUGCGCGGAGUAGCUAUUCGACAGGAGGCUCACAACAGGC
modifications: 2'-F pyrimidines
B8: FCN8 (ssRNA)
RNA: GGGAGAUAAGAAUAAACGCUCAAUAGCAAGUCCCACAUCCCAGACGGGCUAAAAAGAGGUGGAUUCGACAGGAGGCUCACAACAGGC
modifications: 2'-F pyrimidines
B9: FCN69 (ssRNA)
RNA: GGGAGAUAAGAAUAAACGCUCAAGAUUGACACGCACUCCAAUGGCUCUGAAGUGUUCGUGUGCUUCGACAGGAGGCUCACAACAGGC
modifications: 2'-F pyrimidines
B10: FC69 (ssRNA)
RNA: GGGAGAUAAGAAUAAACGCUCAAACAAAUGUGCGCCCUUGGACGAAGUUAACUCGGACGGUUCUUCGACAGGAGGCUCACAACAGGC
modifications: 2'-F pyrimidines
B11: FC9 (ssRNA)
RNA: GGGAGAUAAGAAUAAACGCUCAAGCAAUCUCGGACUAGACCAACGACCUUCGUUUGACGCUCAUUCGACAGGAGGCUCACAACAGGC
modifications: 2'-F pyrimidines
B12: FCN57 (ssRNA)
RNA: B11 RNA with G24A, C41U, C62U
modifications: 2'-F pyrimidines
B13: FCN61 (ssRNA)
RNA: B11 RNA with U36G, C41U, C62U
modifications: 2'-F pyrimidines
B14: FCN12 (ssRNA)
RNA: GGGAGAUAAGAAUAAACGCUCAAAGAGAGGAACUGCGAUUCAGACCAAAACGGAAAUGGCUGUUUCGACAGGAGGCUCACAACAGGC
modifications: 2'-F pyrimidines
B15: FCN22 (ssRNA)
RNA: GGGAGAUAAGAAUAAACGCUCAAGUGAGAAAUGUCGGGGGCGAUGACUUGGACGGUCCACCGUUCGACAGGAGGCUCACAACAGGC
modifications: 2'-F pyrimidines
B16: FCN9 (ssRNA)
RNA: GGGAGAUAAGAAUAAACGCUCAACGUUGAAAUCGCUCCUCAGUGUGAGUUGAAUCAGCUGACCUUCGACAGGAGGCUCACAACAGGC
modifications: 2'-F pyrimidines
B17: FCN25 (ssRNA)
RNA: GGGAGAUAAGAAUAAACGCUCAAGAUAUACUAACUUUCUUUGAAAGCCAAAAGUAUUAAUGCGUUCGACAGGAGGCUCACAACAGGC
modifications: 2'-F pyrimidines
B18: FCN48 (ssRNA)
RNA: B17 RNA with C38G
modifications: 2'-F pyrimidines
B19: FCN26 (ssRNA)
RNA: GGGAGAUAAGAAUAAACGCUCAAUCCAAGGACCAAACGGGUGUUCGGCAGUGGACUUUAGCAAUUCGACAGGAGGCUCACAACAGGC
modifications: 2'-F pyrimidines
B20: FCN21 (ssRNA)
RNA: GGGAGAUAAGAAUAAACGCUCAAAGUUUGGAUUCGGCAGGUGCUGAGACUUUGAUAGCCACUAUUCGACAGGAGGCUCACAACAGGC
modifications: 2'-F pyrimidines
B21: FCN28 (ssRNA)
RNA: GGGAGAUAAGAAUAAACGCUCAAUGGGCUACAUGUGAGUACACCAGCGUGAGAGUUCUUAGGUUCGACAGGAGGCUCACAACAGGC
modifications: 2'-F pyrimidines
B22: FC53 (ssRNA)
RNA: GGGAGAUAAGAAUAAACGCUCAAGCGGGGAGCUCCUCGAGAAACUGAGUUCAACUUCCCAGGUUUCGACAGGAGGCUCACAACAGGC
modifications: 2'-F pyrimidines
B23: FCN65 (ssRNA)
RNA: GGGAGAUAAGAAUAAACGCUCAAAGCGCUAGAUGGACGAGAGACUUUUAAGUAGCAAGCGGUAUUCGACAGGAGGCUCACAACAGGC
modifications: 2'-F pyrimidines
B24: FCN27 (ssRNA)
RNA: GGGAGAUAAGAAUAAACGCUCAAAAAGUCGUGUGCGAGAGGCUCAGAUUUAAUGCGGAGGAUUCGACAGGAGGCUCACAACAGGC
modifications: 2'-F pyrimidines
B25: FCN29 (ssRNA)
RNA: GGGAGAUAAGAAUAAACGCUCAACUGUGCAGUAACUGCGGAUGAGACCAACCGGAUGGCUCAACUUCGACAGGAGGCUCACAACAGGC
modifications: 2'-F pyrimidines
B26: FCN24 (ssRNA)
RNA: GGGAGAUAAGAAUAAACGCUCAAAUGAGUAGACCGAGGAAGCACCCGGCUCUCAAAUGAGUGAUUCGACAGGAGGCUCACAACAGGC
modifications: 2'-F pyrimidines
B27: FCN64 (ssRNA)
RNA: B26 RNA with G60C
modifications: 2'-F pyrimidines
B28: FCN31 (ssRNA)
RNA: GGGAGAUAAGAAUAAACGCUCAAUCUGUUGGUUCAAAGACUUGCUAAGGGGUCGAAGCACCCUUUCGACAGGAGGCUCACAACAGGC
modifications: 2'-F pyrimidines
B29: FCN56 (ssRNA)
RNA: GGGAGAUAAGAAUAAACGCUCAACGGCUCGAUGCUAGCUGGGACGGCUCAUUGAGACUGGUUGUUCGACAGGAGGCUCACAACAGGC
modifications: 2'-F pyrimidines
B30: FCN54 (ssRNA)
RNA: GGGAGAUAAGAAUAAACGCUCAACUGGGCUCAUCCGGCGAAUGAUGCAAGGAAGAUUUCACAUUUCGACAGGAGGCUCACAACAGGC
modifications: 2'-F pyrimidines
B31: FCN49 (ssRNA)
RNA: GGGAGAUAAGAAUAAACGCUCAAGAAUGGAGCCAAGAAAGACAGCGAUGUCUCGGACGAUGAGUUCGACAGGAGGCUCACAACAGGC
modifications: 2'-F pyrimidines
B32: FCN58 (ssRNA)
RNA: B31 RNA with A25G
modifications: 2'-F pyrimidines
B33: FCN50 (ssRNA)
RNA: B31 RNA with A35G
modifications: 2'-F pyrimidines
B34: FCN36 (ssRNA)
RNA: GGGAGAUAAGAAUAAACGCUCAAAGCAGAUGGUGCUGAGGUAUCAUGAAGACGCUGACGCUUAUUCGACAGGAGGCUCACAACAGGC
modifications: 2'-F pyrimidines
B35: FC14 (ssRNA)
RNA: GGGAGAUAAGAAUAAACGCUCAAGUGUUGGAGCUCUUGAUUGGAAAAGUAGAACAAAUCGAAAUUCGACAGGAGGCUCACAACAGGC
modifications: 2'-F pyrimidines
B36: FC74 (ssRNA)
RNA: B35 RNA with A53G
modifications: 2'-F pyrimidines
B37: FC70 (ssRNA)
RNA: B35 RNA with A53G, U58A
modifications: 2'-F pyrimidines
B38: FC30 (ssRNA)
RNA: B35 RNA with G48U, A53G
modifications: 2'-F pyrimidines

Experiments:
Fibrinogen [1] = biological target: T1, Fibrinogen (Homo sapiens, UniProt P02671-2;P02675;P02679-2 P02671-2:20-644,P02675:31-491,P02679-2:27-437); assay: filter; low class; printed l mM, probably uM; settings: chain copies: 2
T1 sequence (P02671 other isoform, or with tags, fused parts or gaps, chain 1 of 3): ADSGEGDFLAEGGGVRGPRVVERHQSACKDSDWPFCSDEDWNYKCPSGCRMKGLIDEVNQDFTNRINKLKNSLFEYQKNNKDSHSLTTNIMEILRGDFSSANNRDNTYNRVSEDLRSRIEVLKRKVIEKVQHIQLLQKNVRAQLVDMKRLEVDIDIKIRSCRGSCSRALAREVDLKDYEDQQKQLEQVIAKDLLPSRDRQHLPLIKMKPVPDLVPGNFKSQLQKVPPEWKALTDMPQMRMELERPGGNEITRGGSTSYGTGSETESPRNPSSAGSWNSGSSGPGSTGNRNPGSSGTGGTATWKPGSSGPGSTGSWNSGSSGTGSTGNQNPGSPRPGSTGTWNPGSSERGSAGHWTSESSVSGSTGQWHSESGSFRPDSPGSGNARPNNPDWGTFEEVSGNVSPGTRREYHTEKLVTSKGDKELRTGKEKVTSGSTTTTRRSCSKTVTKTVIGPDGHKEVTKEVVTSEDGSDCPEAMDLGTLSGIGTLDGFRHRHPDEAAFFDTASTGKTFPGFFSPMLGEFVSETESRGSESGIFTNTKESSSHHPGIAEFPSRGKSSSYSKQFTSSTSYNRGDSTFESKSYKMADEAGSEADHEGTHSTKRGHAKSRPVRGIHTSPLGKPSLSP
T1 sequence (P02675 31-491, chain 2 of 3): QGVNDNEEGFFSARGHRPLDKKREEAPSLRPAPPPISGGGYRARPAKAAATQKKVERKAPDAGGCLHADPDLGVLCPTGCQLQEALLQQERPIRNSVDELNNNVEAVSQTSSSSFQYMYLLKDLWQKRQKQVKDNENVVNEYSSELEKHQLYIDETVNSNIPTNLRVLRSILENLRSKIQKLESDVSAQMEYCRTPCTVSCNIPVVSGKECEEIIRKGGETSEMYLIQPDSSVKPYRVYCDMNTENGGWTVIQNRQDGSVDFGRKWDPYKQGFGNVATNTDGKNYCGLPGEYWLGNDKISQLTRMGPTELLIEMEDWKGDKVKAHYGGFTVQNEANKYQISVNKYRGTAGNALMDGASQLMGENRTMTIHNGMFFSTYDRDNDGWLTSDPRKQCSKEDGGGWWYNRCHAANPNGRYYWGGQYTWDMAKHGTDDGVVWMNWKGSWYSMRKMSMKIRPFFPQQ
T1 sequence (P02679 other isoform, or with tags, fused parts or gaps, chain 3 of 3): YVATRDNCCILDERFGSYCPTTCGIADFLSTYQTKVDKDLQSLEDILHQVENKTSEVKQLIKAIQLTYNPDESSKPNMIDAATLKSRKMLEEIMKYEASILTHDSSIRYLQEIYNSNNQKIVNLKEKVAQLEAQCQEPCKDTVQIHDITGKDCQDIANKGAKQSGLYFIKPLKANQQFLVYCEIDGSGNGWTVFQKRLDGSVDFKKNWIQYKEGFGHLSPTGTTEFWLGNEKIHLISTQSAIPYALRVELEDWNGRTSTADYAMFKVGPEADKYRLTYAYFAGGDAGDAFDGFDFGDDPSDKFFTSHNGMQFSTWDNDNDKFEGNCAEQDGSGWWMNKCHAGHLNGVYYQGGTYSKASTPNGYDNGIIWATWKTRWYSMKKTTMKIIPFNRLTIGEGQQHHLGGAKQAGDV

Fibrinogen [2] = biological target: T1, Fibrinogen; assay: filter; high class; printed l mM, probably uM; settings: chain copies: 2
Fibrinogen [3] = biological target: T1, Fibrinogen; assay: filter; low class; printed l mM, probably uM; clone printed FCNB; settings: chain copies: 2
[4] = biological target: Fibrin (human plasma clot) (Homo sapiens, UniProt P02671-2;P02675;P02679-2 P02671-2:36-644,P02675:45-491,P02679-2:27-437); assay: competition; homogenized plasma clot, Scatchard high-affinity component; settings: tags: clot from recalcified plasma, complex target; chain copies: 2
Fibrin (human plasma clot), sequence (P02671 other isoform, or with tags, fused parts or gaps, chain 1 of 3): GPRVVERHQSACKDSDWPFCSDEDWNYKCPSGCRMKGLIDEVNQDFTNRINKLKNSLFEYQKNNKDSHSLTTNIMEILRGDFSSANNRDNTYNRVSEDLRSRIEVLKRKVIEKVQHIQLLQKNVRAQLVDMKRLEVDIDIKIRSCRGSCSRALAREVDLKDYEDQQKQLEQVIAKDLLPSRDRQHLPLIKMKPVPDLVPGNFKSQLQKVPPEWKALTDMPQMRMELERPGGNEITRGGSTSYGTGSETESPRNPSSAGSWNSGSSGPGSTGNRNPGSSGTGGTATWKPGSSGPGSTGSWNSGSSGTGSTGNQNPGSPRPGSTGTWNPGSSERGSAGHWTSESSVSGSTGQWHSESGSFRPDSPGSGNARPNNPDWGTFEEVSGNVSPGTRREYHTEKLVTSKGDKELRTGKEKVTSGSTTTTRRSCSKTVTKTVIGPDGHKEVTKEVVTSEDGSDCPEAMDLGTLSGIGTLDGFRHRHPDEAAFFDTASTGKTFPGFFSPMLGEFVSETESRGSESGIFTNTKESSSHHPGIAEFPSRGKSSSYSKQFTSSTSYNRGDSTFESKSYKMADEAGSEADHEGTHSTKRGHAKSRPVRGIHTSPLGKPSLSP
Fibrin (human plasma clot), sequence (P02675 45-491, chain 2 of 3): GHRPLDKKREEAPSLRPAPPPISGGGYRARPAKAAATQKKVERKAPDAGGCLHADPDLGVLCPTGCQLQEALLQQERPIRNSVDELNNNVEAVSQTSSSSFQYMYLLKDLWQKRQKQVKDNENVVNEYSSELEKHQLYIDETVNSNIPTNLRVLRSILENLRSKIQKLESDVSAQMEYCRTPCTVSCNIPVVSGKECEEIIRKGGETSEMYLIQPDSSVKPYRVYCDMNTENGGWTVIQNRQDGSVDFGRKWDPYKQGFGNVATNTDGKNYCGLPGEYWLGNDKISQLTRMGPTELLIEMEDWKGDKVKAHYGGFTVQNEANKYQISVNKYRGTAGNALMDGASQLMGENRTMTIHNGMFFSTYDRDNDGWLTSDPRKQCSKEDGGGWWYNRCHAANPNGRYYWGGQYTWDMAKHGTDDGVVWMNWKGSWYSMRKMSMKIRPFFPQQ
Fibrin (human plasma clot), sequence (P02679 other isoform, or with tags, fused parts or gaps, chain 3 of 3): as the sequence (P02679 other isoform, or with tags, fused parts or gaps, chain 3 of 3) above
Protocol: The two best binders in the PE model which had the lowest affinity for fibrinogen were pursued. Both of these clones resided in Motif II. Clone 69 (SEQ ID NO: 55) was analyzed for binding in vitro homogenized clot. By adding a fixed amount of radiolabeled clone 69 (2 nM) to a fixed amount of clot (200 μliters plasma equivalent) with increasing amount of non-radiolabeled ligand, binding could be quantitated. Analyzing data in a Scatchard format yield a two-component curve with high and low affinity binding components. […] These sites were saturable. […] As such it appears that the binding of a specific ligand to clots is specific and stable.

Fibrinogen [5] = biological target: T1, Fibrinogen; assay: filter; moderate fibrinogen affinity; settings: chain copies: 2

Binder	Kd (Fibrinogen [1]) [nM]	Kd (Fibrinogen [2]) [nM]	also measured
B1	> 1000	–	–
B2	> 1000	–	–
B3	> 1000	–	–
B4	> 1000	–	–
B5	–	< 1000	–
B6	> 1000	–	–
B7	> 1000	–	–
B8	–	–	Kd (Fibrinogen [3]): > 1000 nM
B9	> 1000	–	–
B10	–	–	Kd [4]: 14.1 nM
B11	> 1000	–	–
B12	–	< 1000	–
B13	–	< 1000	–
B14	> 1000	–	–
B15	> 1000	–	–
B16	> 1000	–	–
B17	> 1000	–	–
B18	–	–	binding result (Fibrinogen [5]): binds
B19	–	< 1000	–

Binder	Kd (Fibrinogen [1]) [nM]	Kd (Fibrinogen [2]) [nM]	also measured
B20	> 1000	–	–
B21	–	< 1000	–
B22	–	< 1000	–
B23	–	< 1000	–
B24	> 1000	–	–
B25	–	< 1000	–
B26	–	–	binding result (Fibrinogen [5]): binds
B27	–	–	binding result (Fibrinogen [5]): binds
B28	–	–	binding result (Fibrinogen [5]): binds
B29	> 1000	–	–
B30	> 1000	–	–
B31	> 1000	–	–
B32	> 1000	–	–
B33	–	–	binding result (Fibrinogen [5]): binds
B34	–	–	binding result (Fibrinogen [5]): binds
B35	–	< 1000	–
B36	–	< 1000	–
B37	–	< 1000	–
B38	–	< 1000	–
